From US20230398232A1 (NAVROGEN, published 2023)

Assays:
human serum albumin = molecular target: T1, human serum albumin (human, UniProt P02768 25-609); assay: ELISA, plate coated with 1 µg/mL HSA, probed with antibody
T1 construct: Negative control, coated at 1 ug/mL; also called HSA
Description: Antibodies were tested for uptake by incubating each with the human ovarian cancer cell line OVCAR3 that express mesothelin and membrane bound CA125. The parental line was used to generate an isogenic CA125 knockdown line via shRNA (referred to as OVCAR3-KO). Both Ab-3 and Ab-4 uptake were measured in replica in black 96-well microplates over the course of 24 hours measuring intracellular fluorescence on a Varioskan™ plate reader. […] Statistical analysis was done using a two-sided student's T-test.
Several studies have reported that antibodies that are bound by CA125 are negatively affected in eliciting humoral mediated immune killing as well as ADC-mediated killing of target cells (Kline J B, et. al. OncoTarget 8:52045-52060, 2017; Kline J B, et al. Eur J Immunol 48:1872-1882, 2018; Kline J B, et al. J Clin Oncol 5:15, 2018; Nicolaides N C, et al. Cancer Biol Ther 13:1-22, 2018; Nicolaides et. al. USPTO application 1698444). In an attempt to identify anti-mesothelin antibodies that naturally are not bound by CA125, we obtained a number of anti-mesothelin antibodies from academic and commercial sources (National Cancer Institute, Creative Biolabs, Novus, etc.) and tested them for CA125 binding. […] Recombinant mesothelin was used as a positive control and human serum albumin (HSA) was used as negative control. […]

[1] = molecular target: T2, soluble human CA125 protein (human, UniProt Q8WXI7 1-14451, limits assumed); assay: ELISA, plate coated with 15 KU/mL soluble CA125, probed with antibody, anti-Fc-HRP detection
T2 construct: Coated on the ELISA plate at 15 KU/mL; also called MUC16/CA125; soluble CA125
Description: FIG. 1A. Screening for anti-mesothelin antibodies not bound by the immunosuppressive CA125 protein; identification of MES-1 antibody (SEQ ID NO: 1 and 2). Briefly, 96-well ELISA plates were coated with 15 KU/mL of soluble CA125, 1 μg/mL of recombinant human mesothelin protein as a positive control and 1 μg/mL of human serum albumin (HSA) as a negative control and probed with 2.5 μg/mL of different anti-mesothelin antibodies to determine if they are bound by CA125. Wells were washed and detected for binding via a secondary anti-human or anti-rodent Fc-horseradish peroxidase (HRP) conjugated antibody and 3,3′,5,5′-Tetramethylbenzidine (TMB) substrate. Reactions were stopped with 0.1N H₂SO₄ and wells quantified using a multi-well plate reader (Varioskan™, ThermoFisher) at 450 nm. As shown, the antibody MES-1 consisting of SEQ ID NOs: 1 and 2 [Ab-3 (lane 3)] was not bound by CA125 while the other four anti-mesothelin antibodies tested were all bound by CA125. Values were determined from the average of triplicate wells. Statistical analysis was done using student's T-test. FIG. 1B. […] Both Ab-3 and Ab-4 uptake were measured in replica in black 96-well microplates over the course of 24 hours measuring intracellular fluorescence on a Varioskan™ plate reader. […]

B1: MES-1 antibody (antibody, human IgG1, kappa, V domains shown)
VH: EVQLVESGGGLVQPGGSLRLSCAASGFDLGFYFYACWVRQAPGKGLEWVSCIYTAGSGSTYYASWAKGRFTISRDNSKNTLYLQMNSLRAEDTAVYYCARSTANTRSTYYLNLWGQGTLVTVSS
VL: DIQMTQSPSSLSASVGDRVTITCQASQRISSYLSWYQQKPGKVPKLLIYGASTLASGVPSRFSGSGSGTDFTLTISSLQPEDVATYYCQSYAYFDSNNWHAFGGGTKVEIKR
notes: For the uptake assay the antibody carried the pHrodo dye; also called meso-Ab3; Ab-3
Q: Does B1 bind (human serum albumin)?
A: Result: no binding (tested: 2.5 µg/mL)

Q: Does B1 bind [1]?
A: Result: no binding (tested: 2.5 µg/mL)
